Experimental data: patent publication US20190094207A1 (JAPANESE FOUNDATION FOR CANCER RESEARCH, published 2019)
Changes are numbered by the printed parent chain.

Columns and labels:
[1] = target: INCENP (Inner Centromere Protein), endogenous, as part of the chromosomal passenger complex (CPC) (human, UniProt Q9NQS7 1-918); test: INCENP immunoprecipitated from mitotic HeLa cell extract; amount of coprecipitated protein (INCENP in the same precipitate: 1280 pmol)
Description: The cells in the mitotic phase were incubated in a solution, which was prepared by adding 1 U/μl OmniCleave Endonuclease (manufactured by Epicentre) in the above immunoprecipitation buffer, at 4° C. for 30 minutes. The solution was centrifuged at 4° C. and 15,000 rpm for 10 minutes and the supernatant was further centrifuged. The resultant supernatant was used for immunoprecipitation. Protein A-Sepharose (manufactured by Bio-Rad) having an antibody bound thereto, was allowed to react with cell extracts and subjected to immunoprecipitation. […]
Next, whether or not binding to INCENP differs among the subtypes of HP1 was analyzed (FIG. 1B). […] Mitotic HeLa cell extracts were subjected to immunoprecipitation with an INCENP antibody or control IgG and then analyzed by immunoblotting using antibodies against INCENP, Aurora B (clone 6, manufactured by BD Bioscience) and Survivin (71G4B7E, manufactured by Cell Signaling Technology) constituting CPC; an HP1α antibody (clone 15.19s2, manufactured by Millipore), an HP1β antibody (clone 1MOD-1A9, manufactured by Millipore) and an HP1 γ antibody (clone 2MOD-1G6, manufactured by Millipore).
Quantitative analysis was carried out using purified recombinant HP1-subtype proteins.

GST-Aurora B = target: T1, GST-Aurora B (UniProt Q96GD4 1-344, limits assumed); test: GST pull down with recombinant full-length INCENP + GST-Aurora B, without HP1α, with HP1α WT or with I165E; immunoblot and bar chart of Hec1 binding
T1 construct: not shown: GST
Description: Then, enzyme kinetics analysis of Aurora B was carried out. […] Further, analysis of proteins binding to GST-Aurora B was carried out by the GST pull down assay. As a result, the amount of Hec1 binding to GST-Aurora B increased in the conditions where HP1 can bind to INCENP. […] Accordingly, binding of HP1α to INCENP is required for activating Aurora B.

[2] = target: T2, Wild type HP1α (His tag or GST tag attached) (UniProt P45973 1-191); test: alpha assay with acceptor and donor beads capturing His tag or GST tag
T2 construct: also called heterochromatin protein 1; not shown: His tag or GST tag
T2 sequence (P45973 whole entry): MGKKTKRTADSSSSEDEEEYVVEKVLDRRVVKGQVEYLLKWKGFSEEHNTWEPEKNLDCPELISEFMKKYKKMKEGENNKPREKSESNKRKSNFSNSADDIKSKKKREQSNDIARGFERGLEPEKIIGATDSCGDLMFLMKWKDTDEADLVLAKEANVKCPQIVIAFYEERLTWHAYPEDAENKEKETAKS
Description: If a candidate compound is added in the binding assay system, a compound influencing the binding of INCENP and HP1 can be screened. Further, a system for analyzing the binding of HP1 and INCENP based on an alpha assay, which is more sensitive and easier in operation, was constructed. The interaction between HP1α and INCENP was determined by using acceptor beads or donor beads that can capture His tag or GST tag and detecting fluorescent signal in accordance with a conventional method. As a result of that His tag or GST tag was attached to HP1α and a region at positions 160 to 210 in INCENP (SEQ ID NO: 10) and the aforementioned alpha assay using acceptor beads and donor beads was carried out, a binding can be sensitively detected. Accordingly, owing to HTS using the binding assay or alpha assay, compounds influencing the binding of HP1 and INCENP can be screened.

[3] = target: T2, Wild type HP1α (His tag or GST tag …); test: isothermal titration calorimetry, average of 5 experiments
Description: (§1) Wild type HP1α and a region at positions 121 to 270 in INCENP (SEQ ID NO: 8, INCENP WT) were used in the binding assay. The region at positions 121 to 270 in INCENP contains an important motif […], required for binding to HP1. A mutant (SEQ ID NO: 9, INCENP 3A) was obtained by substituting three amino acids in this region with alanine residues and used as a control. A dissociation constant thereof was determined by isothermal titration calorimetry. As an isothermal titration calorimetry apparatus, any device may be used. For example, using MicroCal iTC2000 system (manufactured by GE healthcare biosciences), measurement may be carried out, in accordance with a conventional method.
(§2) The above peptides, to which His tag or GST tag was attached, were subjected to isothermal titration calorimetry to determine a dissociation constant. Note that, the dissociation constant was computationally obtained based on average values of 5 experiments.

[4] = target: T2, Wild type HP1α (His tag or GST tag …); test: isothermal titration calorimetry
Description: as §1, §2

Chain of INCENP (Inner Centromere Protein), endogenous, as part of the chromosomal passenger complex (CPC) (Q9NQS7 whole entry, one chain of several): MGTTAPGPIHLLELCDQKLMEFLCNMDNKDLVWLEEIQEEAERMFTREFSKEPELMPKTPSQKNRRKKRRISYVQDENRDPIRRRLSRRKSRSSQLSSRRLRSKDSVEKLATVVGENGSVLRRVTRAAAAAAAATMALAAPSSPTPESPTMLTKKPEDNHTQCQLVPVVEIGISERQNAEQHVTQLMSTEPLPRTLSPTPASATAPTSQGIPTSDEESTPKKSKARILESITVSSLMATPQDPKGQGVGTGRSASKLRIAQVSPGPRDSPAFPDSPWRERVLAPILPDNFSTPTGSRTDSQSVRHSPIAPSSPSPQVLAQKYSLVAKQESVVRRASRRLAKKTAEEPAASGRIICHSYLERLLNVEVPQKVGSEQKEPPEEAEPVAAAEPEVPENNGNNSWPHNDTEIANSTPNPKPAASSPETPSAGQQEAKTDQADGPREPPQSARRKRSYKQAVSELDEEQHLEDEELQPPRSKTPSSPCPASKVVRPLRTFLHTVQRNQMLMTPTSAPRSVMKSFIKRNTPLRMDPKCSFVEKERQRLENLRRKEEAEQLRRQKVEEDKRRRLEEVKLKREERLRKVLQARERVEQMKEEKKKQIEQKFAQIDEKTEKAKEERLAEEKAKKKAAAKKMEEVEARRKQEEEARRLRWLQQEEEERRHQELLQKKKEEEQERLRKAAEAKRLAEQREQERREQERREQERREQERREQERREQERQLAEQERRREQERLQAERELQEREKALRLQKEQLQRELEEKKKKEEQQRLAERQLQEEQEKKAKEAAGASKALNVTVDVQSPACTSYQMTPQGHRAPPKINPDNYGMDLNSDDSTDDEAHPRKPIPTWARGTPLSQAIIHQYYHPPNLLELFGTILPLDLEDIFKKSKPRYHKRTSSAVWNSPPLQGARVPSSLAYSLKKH

B1: Aurora B (endogenous) (enzyme, human, UniProt Q96GD4 1-344, looked up)
chain: MAQKENSYPWPYGRQTAPSGLSTLPQRVLRKEPVTPSALVLMSRSNVQPTAAPGQKVMENSSGTPDILTRHFTIDDFEIGRPLGKGKFGNVYLAREKKSHFIVALKVLFKSQIEKEGVEHQLRREIEIQAHLHHPNILRLYNYFYDRRRIYLILEYAPRGELYKELQKSCTFDEQRTATIMEELADALMYCHGKKVIHRDIKPENLLLGLKGELKIADFGWSVHAPSLRRKTMCGTLDYLPPEMIEGRMHNEKVDLWCIGVLCYELLVGNPPFESASHNETYRRIVKVDLKFPASVPMGAQDLISKLLRHNPSERLPLAQVSAHPWVRANSRRVLPPSALQSVA
[1]
  Amount: 1110 pmol

B2: Hec1 (other, UniProt O14777 1-80, looked up)
chain: MKRSSVSSGGAGRLSMQELRSQDVNKQGLYTPQTKEKPTFGKLSINKPTSERKVSLFGKRTSGHGSRNSQLGIFSSSEKI
notes: also called Aurora B substrate
GST-Aurora B
  binding result: binds

B3: Region at positions 160 to 210 in INCENP (peptide)
chain: TQCQLVPVVEIGISERQNAEQHVTQLMSTEPLPRTLSPTPASATAPTSQG
notes: Used in the alpha assay with HP1α; also called INCENP 160-210; not shown: His tag or GST tag
[2]
  binding result: binds

B4: INCENP WT (region at positions 121 to 270 in INCENP) (peptide)
chain: LRRVTRAAAAAAAATMALAAPSSPTPESPTMLTKKPEDNHTQCQLVPVVEIGISERQNAEQHVTQLMSTEPLPRTLSPTPASATAPTSQGIPTSDEESTPKKSKARILESITVSSLMATPQDPKGQGVGTGRSASKLRIAQVSPGPRDSP
notes: also called INCENP 121-270; not shown: His tag or GST tag
[3]
  Kd: 102 nM

B5: INCENP 3A (region 121 to 270 of INCENP with three amino acids substituted with alanine) (peptide)
chain: B4 chain with P47A, V49A, I51A
notes: also called INCENP 3A mutant; not shown: His tag or GST tag
[4]
  binding result: no binding
